This assay has as its target MERS-CoV spike receptor binding domain (RBD), residues 367–606, His-tagged (MERS-CoV), K0BRG7. The assay is described as follows: SPR. Particulars: remark: other sources report otherwise.

B1: human CD26 (dipeptidyl peptidase 4), residues 39–766, His-tagged, P27487 39-766 (receptor)
chain: SRKTYTLTDYLKNTYRLKLYSLRWISDHEYLYKQENNILVFNAEYGNSSVFLENSTFDEFGHSINDYSISPDGQFILLEYNYVKQWRHSYTASYDIYDLNKRQLITEERIPNNTQWVTWSPVGHKLAYVWNNDIYVKIEPNLPSYRITWTGKEDIIYNGITDWVYEEEVFSAYSALWWSPNGTFLAYAQFNDTEVPLIEYSFYSDESLQYPKTVRVPYPKAGAVNPTVKFFVVNTDSLSSVTNATSIQITAPASMLIGDHYLCDVTWATQERISLQWLRRIQNYSVMDICDYDESSGRWNCLVARQHIEMSTTGWVGRFRPSEPHFTLDGNSFYKIISNEEGYRHICYFQIDKKDCTFITKGTWEVIGIEALTSDYLYYISNEYKGMPGGRNLYKIQLSDYTKVTCLSCELNPERCQYYSVSFSKEAKYYQLRCSGPGLPLYTLHSSVNDKGLRVLEDNSALDKMLQNVQMPSKKLDFIILNETKFWYQMILPPHFDKSKKYPLLLDVYAGPCSQKADTVFRLNWATYLASTENIIVASFDGRGSGYQGDKIMHAINRRLGTFEVEDQIEAARQFSKMGFVDNKRIAIWGWSYGGYVTSMVLGSGSGVFKCGIAVAPVSRWEYYDSVYTERYMGLPTPEDNLDHYRNSTVMSRAENFKQVEYLLIHGTADDNVHFQQSAQISKALVDVGVDFQAMWYTDEDHGIASSTAHQHIYTHMSHFIKQCFSLP
modifications: here or on the partner: N229-linked carbohydrate
The term Kd denotes the constant that tells how readily two partners part at equilibrium. A higher Kd goes with a looser complex. As usually defined, the koff is the rate constant with which the complex falls apart. A high value points to a short-lived complex. A word on the kon: it is a measure of how fast the partners come together. Read a high kon as fast association. The molecule B1 gave a Kd of 16.7 nM, a koff of 0.00299 s⁻¹ and a kon of 179000 M⁻¹ s⁻¹.

(Values after PMC7095341.)
